System: Escherichia coli TOP10
Assay: shrunken log2 fold change of peptide-encoding DNA abundance (4.5 h post-induction vs induction); higher = less antimicrobial activity (less host growth inhibition)
Settings: time post-induction: 4.5 h; library: site-saturation at positions 5, 18, 19, 20
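Also: peptides expressed intracellularly from a pBAD plasmid library in pooled LB shake-flask culture, induced with 0.3% L-arabinose, DNA abundance read by NGS, three biological replicates, DESeq2 with apeglm shrinkage.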

RRIRYRPPRLPRPRPRPHGIPRP
shrunken log2 fold change: 0.0191

RRIRYRPPRLPRPRPRPHGNPRP
shrunken log2 fold change: -0.573

RRIRYRPPRLPRPRPRPHGVPRP
shrunken log2 fold change: -0.261

RRIRYRPPRLPRPRPRPHHDPRP
shrunken log2 fold change: -0.917

RRIRYRPPRLPRPRPRPHHHPRP
shrunken log2 fold change: -1.09

RRIRYRPPRLPRPRPRPHIGPRP
shrunken log2 fold change: 0.0489

RRIRYRPPRLPRPRPRPHKCPRP
shrunken log2 fold change: -0.259

RRIRYRPPRLPRPRPRPHKHPRP
shrunken log2 fold change: -0.91

RRIRYRPPRLPRPRPRPHKPPRP
shrunken log2 fold change: -0.171

RRIRYRPPRLPRPRPRPHLEPRP
shrunken log2 fold change: -0.021

RRIRYRPPRLPRPRPRPHLHPRP
shrunken log2 fold change: -1.12

RRIRYRPPRLPRPRPRPHLSPRP
shrunken log2 fold change: -0.235

RRIRYRPPRLPRPRPRPHMHPRP
shrunken log2 fold change: -0.988

RRIRYRPPRLPRPRPRPHNCPRP
shrunken log2 fold change: -0.381

RRIRYRPPRLPRPRPRPHNIPRP
shrunken log2 fold change: -0.238

RRIRYRPPRLPRPRPRPHNPPRP
shrunken log2 fold change: -1.15

RRIRYRPPRLPRPRPRPHNVPRP
shrunken log2 fold change: -0.14

RRIRYRPPRLPRPRPRPHQAPRP
shrunken log2 fold change: -0.0296

RRIRYRPPRLPRPRPRPHSHPRP
shrunken log2 fold change: -0.311

RRIRYRPPRLPRPRPRPHTPPRP
shrunken log2 fold change: -0.346

RRIRYRPPRLPRPRPRPHTTPRP
shrunken log2 fold change: -0.0318

RRIRYRPPRLPRPRPRPHVDPRP
shrunken log2 fold change: -0.588

RRIRYRPPRLPRPRPRPHVTPRP
shrunken log2 fold change: -0.147

RRIRYRPPRLPRPRPRPHYKPRP
shrunken log2 fold change: -0.316

RRIRYRPPRLPRPRPRPIANPRP
shrunken log2 fold change: -0.0103

RRIRYRPPRLPRPRPRPICRPRP
shrunken log2 fold change: -0.226

RRIRYRPPRLPRPRPRPIDEPRP
shrunken log2 fold change: -0.438

RRIRYRPPRLPRPRPRPIECPRP
shrunken log2 fold change: 0.00468

RRIRYRPPRLPRPRPRPIEFPRP
shrunken log2 fold change: -0.0341

RRIRYRPPRLPRPRPRPIEKPRP
shrunken log2 fold change: -0.203

RRIRYRPPRLPRPRPRPIFEPRP
shrunken log2 fold change: -0.833

RRIRYRPPRLPRPRPRPIGGPRP
shrunken log2 fold change: -0.4

RRIRYRPPRLPRPRPRPIHIPRP
shrunken log2 fold change: -0.0433

RRIRYRPPRLPRPRPRPIHKPRP
shrunken log2 fold change: -0.6

RRIRYRPPRLPRPRPRPIHQPRP
shrunken log2 fold change: -0.0218

RRIRYRPPRLPRPRPRPIIFPRP
shrunken log2 fold change: 0.0131

RRIRYRPPRLPRPRPRPIIYPRP
shrunken log2 fold change: -0.522

RRIRYRPPRLPRPRPRPILVPRP
shrunken log2 fold change: -0.237

RRIRYRPPRLPRPRPRPIMFPRP
shrunken log2 fold change: -1.35

RRIRYRPPRLPRPRPRPIPDPRP
shrunken log2 fold change: 0.0657

RRIRYRPPRLPRPRPRPIPLPRP
shrunken log2 fold change: -0.418

RRIRYRPPRLPRPRPRPIRIPRP
shrunken log2 fold change: -0.144

RRIRYRPPRLPRPRPRPISAPRP
shrunken log2 fold change: -0.373

RRIRYRPPRLPRPRPRPITFPRP
shrunken log2 fold change: -0.864

RRIRYRPPRLPRPRPRPITQPRP
shrunken log2 fold change: -0.532

RRIRYRPPRLPRPRPRPIYCPRP
shrunken log2 fold change: -0.15

RRIRYRPPRLPRPRPRPKAIPRP
shrunken log2 fold change: -0.497

RRIRYRPPRLPRPRPRPKCEPRP
shrunken log2 fold change: -0.0192

RRIRYRPPRLPRPRPRPKCGPRP
shrunken log2 fold change: 0.0111

RRIRYRPPRLPRPRPRPKCIPRP
shrunken log2 fold change: -0.154

RRIRYRPPRLPRPRPRPKDAPRP
shrunken log2 fold change: -0.0259

RRIRYRPPRLPRPRPRPKFMPRP
shrunken log2 fold change: -0.633

RRIRYRPPRLPRPRPRPKFNPRP
shrunken log2 fold change: -1.1

RRIRYRPPRLPRPRPRPKGFPRP
shrunken log2 fold change: -0.0319

RRIRYRPPRLPRPRPRPKILPRP
shrunken log2 fold change: -0.247

RRIRYRPPRLPRPRPRPKKCPRP
shrunken log2 fold change: -0.0883

RRIRYRPPRLPRPRPRPKLLPRP
shrunken log2 fold change: -0.296

RRIRYRPPRLPRPRPRPKLMPRP
shrunken log2 fold change: -0.115

RRIRYRPPRLPRPRPRPKLYPRP
shrunken log2 fold change: -0.65

RRIRYRPPRLPRPRPRPKMTPRP
shrunken log2 fold change: -0.728

RRIRYRPPRLPRPRPRPKNGPRP
shrunken log2 fold change: 0.013

RRIRYRPPRLPRPRPRPKNIPRP
shrunken log2 fold change: -0.127

RRIRYRPPRLPRPRPRPKNTPRP
shrunken log2 fold change: -0.579

RRIRYRPPRLPRPRPRPKPEPRP
shrunken log2 fold change: -0.0857

RRIRYRPPRLPRPRPRPKQLPRP
shrunken log2 fold change: 0.0588

RRIRYRPPRLPRPRPRPKQTPRP
shrunken log2 fold change: 0.283

RRIRYRPPRLPRPRPRPKREPRP
shrunken log2 fold change: 0.0201

RRIRYRPPRLPRPRPRPKRIPRP
shrunken log2 fold change: -0.0123

RRIRYRPPRLPRPRPRPKVNPRP
shrunken log2 fold change: -0.599

RRIRYRPPRLPRPRPRPLARPRP
shrunken log2 fold change: -0.265

RRIRYRPPRLPRPRPRPLAYPRP
shrunken log2 fold change: -0.15

RRIRYRPPRLPRPRPRPLCFPRP
shrunken log2 fold change: -0.727

RRIRYRPPRLPRPRPRPLDNPRP
shrunken log2 fold change: -0.0671

RRIRYRPPRLPRPRPRPLEEPRP
shrunken log2 fold change: -0.0801

RRIRYRPPRLPRPRPRPLELPRP
shrunken log2 fold change: 0.0293

RRIRYRPPRLPRPRPRPLEYPRP
shrunken log2 fold change: -0.443

RRIRYRPPRLPRPRPRPLFIPRP
shrunken log2 fold change: -0.683

RRIRYRPPRLPRPRPRPLFQPRP
shrunken log2 fold change: -0.76

RRIRYRPPRLPRPRPRPLIIPRP
shrunken log2 fold change: -1.2

RRIRYRPPRLPRPRPRPLKCPRP
shrunken log2 fold change: -0.301

RRIRYRPPRLPRPRPRPLLQPRP
shrunken log2 fold change: -0.309

RRIRYRPPRLPRPRPRPLLVPRP
shrunken log2 fold change: -0.692

RRIRYRPPRLPRPRPRPLMSPRP
shrunken log2 fold change: -0.0164

RRIRYRPPRLPRPRPRPLMTPRP
shrunken log2 fold change: -0.181

RRIRYRPPRLPRPRPRPLNKPRP
shrunken log2 fold change: -0.449

RRIRYRPPRLPRPRPRPLPEPRP
shrunken log2 fold change: -0.323

RRIRYRPPRLPRPRPRPLPHPRP
shrunken log2 fold change: -0.375

RRIRYRPPRLPRPRPRPLQDPRP
shrunken log2 fold change: 0.0382

RRIRYRPPRLPRPRPRPLQGPRP
shrunken log2 fold change: -0.0139

RRIRYRPPRLPRPRPRPLQNPRP
shrunken log2 fold change: 0.0956

RRIRYRPPRLPRPRPRPLQPPRP
shrunken log2 fold change: -0.499

RRIRYRPPRLPRPRPRPLQWPRP
shrunken log2 fold change: -0.0328

RRIRYRPPRLPRPRPRPLREPRP
shrunken log2 fold change: 0.483

RRIRYRPPRLPRPRPRPLYCPRP
shrunken log2 fold change: -0.975

RRIRYRPPRLPRPRPRPLYPPRP
shrunken log2 fold change: -0.929

RRIRYRPPRLPRPRPRPMAPPRP
shrunken log2 fold change: 0.025

RRIRYRPPRLPRPRPRPMFTPRP
shrunken log2 fold change: -0.629

RRIRYRPPRLPRPRPRPMGGPRP
shrunken log2 fold change: -0.264

RRIRYRPPRLPRPRPRPMHRPRP
shrunken log2 fold change: -0.0541

RRIRYRPPRLPRPRPRPMHVPRP
shrunken log2 fold change: 0.214

RRIRYRPPRLPRPRPRPMIFPRP
shrunken log2 fold change: -1.43

RRIRYRPPRLPRPRPRPMIMPRP
shrunken log2 fold change: -0.0957

RRIRYRPPRLPRPRPRPMKQPRP
shrunken log2 fold change: -0.0304

RRIRYRPPRLPRPRPRPMKWPRP
shrunken log2 fold change: 0.00957

RRIRYRPPRLPRPRPRPMLCPRP
shrunken log2 fold change: -0.0838

RRIRYRPPRLPRPRPRPMLMPRP
shrunken log2 fold change: -0.13

RRIRYRPPRLPRPRPRPMMMPRP
shrunken log2 fold change: -0.497

RRIRYRPPRLPRPRPRPMNEPRP
shrunken log2 fold change: -0.103

RRIRYRPPRLPRPRPRPMNNPRP
shrunken log2 fold change: -1.28

RRIRYRPPRLPRPRPRPMPLPRP
shrunken log2 fold change: -0.398

RRIRYRPPRLPRPRPRPMRVPRP
shrunken log2 fold change: 0.135

RRIRYRPPRLPRPRPRPMTVPRP
shrunken log2 fold change: -0.0212

RRIRYRPPRLPRPRPRPMVDPRP
shrunken log2 fold change: -0.248

RRIRYRPPRLPRPRPRPMVKPRP
shrunken log2 fold change: -0.574

RRIRYRPPRLPRPRPRPMVLPRP
shrunken log2 fold change: -0.0934

RRIRYRPPRLPRPRPRPMWFPRP
shrunken log2 fold change: 0.0169

RRIRYRPPRLPRPRPRPMYAPRP
shrunken log2 fold change: -0.0214

RRIRYRPPRLPRPRPRPNDQPRP
shrunken log2 fold change: -0.819

RRIRYRPPRLPRPRPRPNDYPRP
shrunken log2 fold change: -0.0969

RRIRYRPPRLPRPRPRPNEEPRP
shrunken log2 fold change: -0.0952

RRIRYRPPRLPRPRPRPNHYPRP
shrunken log2 fold change: -0.739

RRIRYRPPRLPRPRPRPNIKPRP
shrunken log2 fold change: -1.13

RRIRYRPPRLPRPRPRPNIYPRP
shrunken log2 fold change: -0.68

RRIRYRPPRLPRPRPRPNLKPRP
shrunken log2 fold change: -0.732

RRIRYRPPRLPRPRPRPNQCPRP
shrunken log2 fold change: -0.352

RRIRYRPPRLPRPRPRPNQLPRP
shrunken log2 fold change: -0.439

RRIRYRPPRLPRPRPRPNRGPRP
shrunken log2 fold change: -0.124

RRIRYRPPRLPRPRPRPNSHPRP
shrunken log2 fold change: -0.839

RRIRYRPPRLPRPRPRPNSYPRP
shrunken log2 fold change: -2.3

RRIRYRPPRLPRPRPRPNTGPRP
shrunken log2 fold change: -0.195

RRIRYRPPRLPRPRPRPNTSPRP
shrunken log2 fold change: -0.423

RRIRYRPPRLPRPRPRPNVIPRP
shrunken log2 fold change: -0.338

RRIRYRPPRLPRPRPRPNVTPRP
shrunken log2 fold change: -0.573

RRIRYRPPRLPRPRPRPNVWPRP
shrunken log2 fold change: -0.00356

RRIRYRPPRLPRPRPRPNWGPRP
shrunken log2 fold change: -0.0851

RRIRYRPPRLPRPRPRPNYPPRP
shrunken log2 fold change: -0.79

RRIRYRPPRLPRPRPRPPCNPRP
shrunken log2 fold change: -0.0594

RRIRYRPPRLPRPRPRPPDKPRP
shrunken log2 fold change: 0.194

RRIRYRPPRLPRPRPRPPDYPRP
shrunken log2 fold change: -2.1

RRIRYRPPRLPRPRPRPPEIPRP
shrunken log2 fold change: -0.0815

RRIRYRPPRLPRPRPRPPESPRP
shrunken log2 fold change: 0.0226

RRIRYRPPRLPRPRPRPPEYPRP
shrunken log2 fold change: 0.0412

RRIRYRPPRLPRPRPRPPGHPRP
shrunken log2 fold change: -0.337

RRIRYRPPRLPRPRPRPPIHPRP
shrunken log2 fold change: -0.958

RRIRYRPPRLPRPRPRPPILPRP
shrunken log2 fold change: -0.498

RRIRYRPPRLPRPRPRPPLVPRP
shrunken log2 fold change: 0.174

RRIRYRPPRLPRPRPRPPNLPRP
shrunken log2 fold change: -0.248

RRIRYRPPRLPRPRPRPPNMPRP
shrunken log2 fold change: -0.863

RRIRYRPPRLPRPRPRPPPDPRP
shrunken log2 fold change: 0.7

RRIRYRPPRLPRPRPRPPPVPRP
shrunken log2 fold change: 0.61

Source: the supplement of paper PMC9112550, “Optimization of the antimicrobial peptide Bac7 by deep mutational scanning” (BMC Biology, 2022)
